# From US10328136
# Biological target: nectin-1 (human) (UniProt Q15223)
# Test: cell-based or functional assay
# Sequence of UniProt Q15223 (Q15223 31-517): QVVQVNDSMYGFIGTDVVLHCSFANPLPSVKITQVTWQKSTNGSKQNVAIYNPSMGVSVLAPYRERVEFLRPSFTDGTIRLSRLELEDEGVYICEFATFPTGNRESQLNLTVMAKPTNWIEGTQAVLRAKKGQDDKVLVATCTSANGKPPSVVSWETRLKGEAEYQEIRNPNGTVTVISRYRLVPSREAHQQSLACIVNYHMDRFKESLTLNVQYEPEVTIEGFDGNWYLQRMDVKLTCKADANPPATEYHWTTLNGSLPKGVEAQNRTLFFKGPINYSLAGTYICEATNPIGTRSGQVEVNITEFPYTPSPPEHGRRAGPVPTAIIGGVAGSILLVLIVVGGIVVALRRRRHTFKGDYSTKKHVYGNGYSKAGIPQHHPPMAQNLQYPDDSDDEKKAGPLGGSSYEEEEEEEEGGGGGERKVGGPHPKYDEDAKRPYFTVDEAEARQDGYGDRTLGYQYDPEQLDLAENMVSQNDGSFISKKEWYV
substance,measurement,value
wild-type glycoprotein D (gD) of HSV-1 strain KOS,"entry of QOZHG into J/C cells (X-gal staining at 24 hpi, MOI=10)",100%
